{
  "source": "patent US20240424125A1",
  "key": {"[1]": {"target": "human FRα on cells (human) (UniProt P15328)", "sequence (P15328 25-234 limits assumed)": "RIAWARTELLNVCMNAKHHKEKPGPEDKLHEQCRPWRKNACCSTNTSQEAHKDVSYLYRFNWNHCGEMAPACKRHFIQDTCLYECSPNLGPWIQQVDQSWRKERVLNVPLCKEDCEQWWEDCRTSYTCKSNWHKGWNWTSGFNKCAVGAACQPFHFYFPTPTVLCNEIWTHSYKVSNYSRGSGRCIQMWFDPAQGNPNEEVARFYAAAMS", "test": "flow cytometry on IGROV-1 cells (endogenous FRα), negative control", "parameters": "unit not given here"}, "[2]": {"target": "human FRα on cells (human) (UniProt P15328)", "test": "flow cytometry on JEG-3 cells (endogenous FRα), negative control", "parameters": "unit not given here"}},
  "data": [
    {"substance": "Human IgG (antibody)", "values": [
      {"measurement": "Bmax", "setting": "[1]", "value": 208},
      {"measurement": "Bmax", "setting": "[2]", "value": 144}
    ]}
  ]
}
